Laboratory results published in patent US20210155682A1, “COMPOSITIONS AND METHODS FOR REDUCTION OF LIPOPROTEIN A FORMATION AND TREATMENT OF AORTIC VALVE SCLEROSIS AND AORTIC STENOSIS” (Abcentra, LLC, priority 2018, published 2021).
“Also recorded” adds a separate entry of the source.

How the values were obtained:
[1] = molecular target: purified human LDL, carrying apolipoprotein B100 (human) (UniProt P04114); test: Western blot of covalent assembly of 5 nM 17K r-apo(a) with 100 nM LDL, 8 h
[2] = molecular target: purified human LDL, carrying apolipoprotein B100 (human) (UniProt P04114); test: Western blot of covalent assembly of 5 nM 17K r-apo(a) with 100 nM LDL, 8 h, 10 µM orticumab
[3] = molecular target: purified human LDL, carrying apolipoprotein B100 (human) (UniProt P04114); test: Western blot of covalent assembly of 5 nM 17K r-apo(a) with 100 nM LDL, 8 h, 0.1 µM orticumab
[4] = molecular target: purified human LDL, carrying apolipoprotein B100 (human) (UniProt P04114); test: Western blot of covalent assembly of 5 nM 17K r-apo(a) with 100 nM LDL, 8 h, orticumab at '1' (unit missing, by context 1 µM)
[5] = molecular target: T1, non-covalent binding between apo(a) and LDL (Homo sapiens, UniProt P04114); test: Fluorescence assay of non-covalent binding: quenching of Flu-LDL by 17K r-apo(a)
T1 construct: made in house; host or cells: apo(a): stably-expressing HEK293 cell lines; LDL: plasma of a healthy donor

Flu-LDL = molecular target: T2, Flu-LDL (Homo sapiens, UniProt P04114); test: Antibody interference with Flu-LDL fluorescence (Flu-LDL alone); details: Flu-LDL 100 nM; orticumab 0.1-1000 nM; FIG. 5
T2 construct: from tissue; host or cells: plasma of a healthy donor

[6] = molecular target: T3, covalent binding between apo(a) and LDL (Lp(a) formation) (Homo sapiens, UniProt P04114); test: Covalent Lp(a) assembly assay, Western blot (% r-Lp(a)); assay type: biochemical; details: for percent inhibition of Lp(a) formation: FIG. 10; for Reduction of covalent Lp(a) compared with control antibodies: 4 hours, orticumab 0.01-10 μM, FIG. 8
T3 construct: made in house; host or cells: apo(a): stably-expressing HEK293 cell lines; LDL: plasma of a healthy donor
Protocol: Purified LDL (100 nM) and 17K apo(a) (5 nM) were incubated with conditioned serum-free medium (OptiMEM; Gibco) from HEK293 cells in the presence of 0, 0.01, 0.1, 1.0, and 10 μM of orticumab at 37° C. The reactions were mixed thoroughly every hour and stopped after 4 or 8 hrs by adding 4×SDS-PAGE sample buffer. Samples were then boiled for 5 min at 95° C. and subjected to SDS-PAGE on 6% polyacrylamide gel. After electrophoresis, separated proteins were electroblotted onto a PVDF membrane, blocked, and incubated with a monoclonal antibody (A5) specific for apo(a). HRP-conjugated goat anti-mouse IgG secondary antibody was used to develop a signal in the presence of a chemiluminescence reagent and images were captured using a ChemiDoc system (Bio-Rad). Band intensity (BI) of western-blots were quantified using IMAGELAB software for recombinant Lp(a) formation using the following equation: % r-Lp(a)=BI(Lp(a))/[BI(Lp(a))+BI(apo(a))]. A Two-Way ANOVA with Tukey post-hoc test was used to analyze the data in GraphPad Prism 7.0.
Covalent binding between apo(a) and LDL was assessed over time by appearance of Lp(a) protein on a Western blot. Using serum-free HEK293 cell-conditioned medium, Lp(a) formation was evaluated after incubation of 17K r-apo(a) with LDL from 0-8 hours; isolated Lp(a), 17K apo(a) alone, and media alone were used as controls.
Next, the effect of orticumab on inhibition of covalent binding between apo(a) and LDL was assessed by Western blot analysis. 17K r-apo(a) (5 nM) was incubated with LDL (100 nM) in serum free HEK293 cell-conditioned medium for 4 hours at 37° C. in the presence of orticumab at 0.1, 1, 5, and 10 μM.
To determine whether inhibition of Lp(a) formation occurs at a later time point when Lp(a) formation appears to be maximal, the Western blot experiments were repeated after a 0- and 8-hour incubation of 5 nM 17K r-apo(a) and 100 nM LDL in the presence of orticumab at 0.01, 0.1, 1, and 10 μM in serum free HEK293 cell-conditioned medium (FIG. 9). The results were then quantified (FIG. 10) and analyzed.

T3 sequence (P04114 28-4563): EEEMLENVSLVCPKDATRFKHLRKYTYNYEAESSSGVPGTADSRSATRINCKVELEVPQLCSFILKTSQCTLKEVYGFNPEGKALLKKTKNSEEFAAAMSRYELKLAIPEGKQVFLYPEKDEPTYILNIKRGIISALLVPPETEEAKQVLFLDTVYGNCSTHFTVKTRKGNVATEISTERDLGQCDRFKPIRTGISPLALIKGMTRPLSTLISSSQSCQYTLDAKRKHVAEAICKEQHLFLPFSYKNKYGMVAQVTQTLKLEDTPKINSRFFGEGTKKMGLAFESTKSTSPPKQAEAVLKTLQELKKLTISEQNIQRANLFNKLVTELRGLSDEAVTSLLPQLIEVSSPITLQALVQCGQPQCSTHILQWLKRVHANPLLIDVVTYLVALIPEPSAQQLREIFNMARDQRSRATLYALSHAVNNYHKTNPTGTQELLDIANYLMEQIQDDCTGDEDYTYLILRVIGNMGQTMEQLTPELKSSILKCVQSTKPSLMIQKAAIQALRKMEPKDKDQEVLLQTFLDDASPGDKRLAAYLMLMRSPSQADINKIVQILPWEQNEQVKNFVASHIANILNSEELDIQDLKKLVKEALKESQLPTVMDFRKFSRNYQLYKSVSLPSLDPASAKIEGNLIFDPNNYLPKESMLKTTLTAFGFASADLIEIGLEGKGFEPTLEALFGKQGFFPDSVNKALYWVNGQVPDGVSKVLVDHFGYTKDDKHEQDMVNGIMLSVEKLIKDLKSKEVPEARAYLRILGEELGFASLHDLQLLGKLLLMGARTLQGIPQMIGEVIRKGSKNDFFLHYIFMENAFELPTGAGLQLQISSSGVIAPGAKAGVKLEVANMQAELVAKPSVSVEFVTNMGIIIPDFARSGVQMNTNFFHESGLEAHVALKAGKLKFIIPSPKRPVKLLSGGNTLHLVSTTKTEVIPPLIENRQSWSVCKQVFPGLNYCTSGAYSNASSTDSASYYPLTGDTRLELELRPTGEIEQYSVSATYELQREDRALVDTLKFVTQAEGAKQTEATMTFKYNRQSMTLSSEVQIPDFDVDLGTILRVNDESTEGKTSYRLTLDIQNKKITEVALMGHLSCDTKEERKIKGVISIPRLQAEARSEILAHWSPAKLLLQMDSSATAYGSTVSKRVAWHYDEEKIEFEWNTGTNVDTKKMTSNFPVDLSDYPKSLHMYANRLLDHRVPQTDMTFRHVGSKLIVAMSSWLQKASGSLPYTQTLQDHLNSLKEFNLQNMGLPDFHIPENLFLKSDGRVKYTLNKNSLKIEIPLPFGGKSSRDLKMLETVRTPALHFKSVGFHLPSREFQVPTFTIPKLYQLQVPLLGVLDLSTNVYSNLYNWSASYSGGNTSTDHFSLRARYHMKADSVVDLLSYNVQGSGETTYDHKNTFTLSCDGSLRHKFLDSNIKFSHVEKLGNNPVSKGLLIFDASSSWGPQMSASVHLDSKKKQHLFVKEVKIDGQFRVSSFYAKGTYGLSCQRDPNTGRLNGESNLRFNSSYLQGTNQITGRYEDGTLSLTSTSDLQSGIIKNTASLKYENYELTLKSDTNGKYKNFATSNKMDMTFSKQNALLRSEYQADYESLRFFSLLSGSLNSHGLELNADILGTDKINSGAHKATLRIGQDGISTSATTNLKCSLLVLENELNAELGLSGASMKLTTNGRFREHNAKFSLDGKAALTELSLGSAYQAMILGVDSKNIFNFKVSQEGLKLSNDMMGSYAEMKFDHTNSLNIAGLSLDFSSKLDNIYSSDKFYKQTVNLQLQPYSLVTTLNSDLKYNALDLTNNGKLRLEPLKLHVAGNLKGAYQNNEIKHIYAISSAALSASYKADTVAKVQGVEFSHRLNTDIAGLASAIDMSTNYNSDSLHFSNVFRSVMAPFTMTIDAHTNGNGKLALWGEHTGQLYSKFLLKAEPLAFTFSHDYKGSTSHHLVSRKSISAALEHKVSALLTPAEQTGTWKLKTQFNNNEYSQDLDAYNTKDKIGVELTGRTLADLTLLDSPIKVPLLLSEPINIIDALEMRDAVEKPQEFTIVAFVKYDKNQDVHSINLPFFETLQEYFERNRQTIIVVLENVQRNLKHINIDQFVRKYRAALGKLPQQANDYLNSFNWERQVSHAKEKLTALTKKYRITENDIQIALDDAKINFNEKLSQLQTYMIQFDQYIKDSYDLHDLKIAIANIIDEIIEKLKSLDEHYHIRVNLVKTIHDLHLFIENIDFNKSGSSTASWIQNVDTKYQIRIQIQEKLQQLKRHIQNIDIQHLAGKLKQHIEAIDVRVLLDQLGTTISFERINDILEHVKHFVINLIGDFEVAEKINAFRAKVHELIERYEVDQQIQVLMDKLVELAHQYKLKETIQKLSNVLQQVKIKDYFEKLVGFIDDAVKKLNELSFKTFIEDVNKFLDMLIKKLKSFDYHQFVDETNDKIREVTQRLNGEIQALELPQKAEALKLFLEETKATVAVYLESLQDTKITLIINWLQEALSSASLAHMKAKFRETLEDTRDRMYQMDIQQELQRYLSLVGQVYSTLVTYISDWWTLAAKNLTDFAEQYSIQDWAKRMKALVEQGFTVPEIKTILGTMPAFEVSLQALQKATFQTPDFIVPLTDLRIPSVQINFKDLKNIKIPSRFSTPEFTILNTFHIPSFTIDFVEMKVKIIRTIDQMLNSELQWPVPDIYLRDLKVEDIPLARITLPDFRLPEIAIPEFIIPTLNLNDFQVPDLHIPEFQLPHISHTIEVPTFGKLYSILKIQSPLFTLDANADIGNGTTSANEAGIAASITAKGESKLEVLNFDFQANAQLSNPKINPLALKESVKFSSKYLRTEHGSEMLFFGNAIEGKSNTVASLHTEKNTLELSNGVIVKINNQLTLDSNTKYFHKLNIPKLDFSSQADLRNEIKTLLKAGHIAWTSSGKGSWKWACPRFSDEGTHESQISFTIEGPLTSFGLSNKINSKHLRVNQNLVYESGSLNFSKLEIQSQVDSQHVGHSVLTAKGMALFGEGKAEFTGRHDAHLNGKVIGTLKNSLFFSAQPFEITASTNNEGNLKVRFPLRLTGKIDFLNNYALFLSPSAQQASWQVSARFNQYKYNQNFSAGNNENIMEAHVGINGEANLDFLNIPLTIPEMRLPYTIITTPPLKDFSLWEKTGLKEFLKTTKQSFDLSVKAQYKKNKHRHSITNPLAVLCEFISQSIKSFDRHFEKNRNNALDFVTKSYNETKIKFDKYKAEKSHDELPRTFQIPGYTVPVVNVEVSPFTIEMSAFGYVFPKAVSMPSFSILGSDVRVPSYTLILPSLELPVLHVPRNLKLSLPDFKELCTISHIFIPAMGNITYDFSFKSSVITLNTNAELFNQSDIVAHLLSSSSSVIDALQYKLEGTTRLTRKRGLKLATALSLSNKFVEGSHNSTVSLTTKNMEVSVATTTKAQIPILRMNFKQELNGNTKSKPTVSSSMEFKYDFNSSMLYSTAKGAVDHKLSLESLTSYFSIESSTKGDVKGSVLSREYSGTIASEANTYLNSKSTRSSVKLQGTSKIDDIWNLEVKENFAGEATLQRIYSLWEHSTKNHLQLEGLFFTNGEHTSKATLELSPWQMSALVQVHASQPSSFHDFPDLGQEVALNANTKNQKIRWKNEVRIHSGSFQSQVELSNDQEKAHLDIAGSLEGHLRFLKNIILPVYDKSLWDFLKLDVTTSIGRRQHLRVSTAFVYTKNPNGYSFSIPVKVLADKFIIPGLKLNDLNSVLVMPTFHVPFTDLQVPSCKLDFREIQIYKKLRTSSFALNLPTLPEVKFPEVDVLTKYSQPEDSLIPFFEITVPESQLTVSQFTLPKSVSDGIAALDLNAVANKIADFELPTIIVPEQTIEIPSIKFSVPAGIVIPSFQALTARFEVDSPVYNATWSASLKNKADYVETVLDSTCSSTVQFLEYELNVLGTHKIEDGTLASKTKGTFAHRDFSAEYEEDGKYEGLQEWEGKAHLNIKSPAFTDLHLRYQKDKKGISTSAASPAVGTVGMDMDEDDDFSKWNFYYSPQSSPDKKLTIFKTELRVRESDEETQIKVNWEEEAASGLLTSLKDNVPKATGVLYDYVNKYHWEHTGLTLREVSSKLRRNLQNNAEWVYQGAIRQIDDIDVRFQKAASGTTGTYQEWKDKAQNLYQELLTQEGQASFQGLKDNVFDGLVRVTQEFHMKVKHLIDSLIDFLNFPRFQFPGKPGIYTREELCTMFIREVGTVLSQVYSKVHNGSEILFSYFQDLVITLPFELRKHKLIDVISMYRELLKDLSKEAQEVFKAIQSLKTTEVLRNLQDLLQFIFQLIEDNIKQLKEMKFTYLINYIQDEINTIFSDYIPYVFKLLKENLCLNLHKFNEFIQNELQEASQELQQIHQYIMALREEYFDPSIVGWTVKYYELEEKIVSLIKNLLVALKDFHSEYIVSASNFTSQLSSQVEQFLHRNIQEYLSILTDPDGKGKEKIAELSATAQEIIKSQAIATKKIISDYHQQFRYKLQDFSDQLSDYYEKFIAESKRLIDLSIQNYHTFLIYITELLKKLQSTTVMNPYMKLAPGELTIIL
Sequence of purified human LDL, carrying apolipoprotein B100 (human) (P04114 28-4563): as above
T1 sequence (P04114 28-4563): as above
T2 sequence (P04114 28-4563): as above

| percent inhibition of Lp(a) formation [1] | percent inhibition of Lp(a) formation [2] | percent inhibition of Lp(a) formation [3] | percent inhibition of Lp(a) formation [4] | Substance | Concentration at which the antibody interfered with fluorescence ([5]; Flu-LDL 30 nM, 17K r-apo(a) 300 nM, FIG. 4A) | Concentration of maximum response in dose-response titration ([5]; de-quenching of Flu-LDL fluorescence, FIG. 3) | Inhibition of non-covalent binding between apo(a) and LDL, overall statement ([5]; fluorescence assay, summary of Example 3) | Alleviation of quenching of Flu-LDL by 17K apo(a), antibody titration ([5]; orticumab 0-1000 nM, Flu-LDL 50 nM, 17K r-apo(a) 500 nM, FIG. 3) | Inhibition of non-covalent apo(a)/Flu-LDL binding in 17K apo(a) titration ([5]; orticumab 1000 nM, Flu-LDL 50 nM, 17K r-apo(a) 0-1000 nM, FIG. 2) | De-quenching of Flu-LDL fluorescence at lower concentrations ([5]; orticumab 0.4096-100 nM, Flu-LDL 30 nM, 17K r-apo(a) 300 nM, FIG. 4A) | Effect on fluorescence of Flu-LDL alone (Flu-LDL) | percent inhibition of Lp(a) formation ([6]; 0.01 μM orticumab, 8-hour incubation, 17K r-apo(a) 5 nM, LDL 100 nM) | percent inhibition of Lp(a) formation ([6]; 0.1 μM orticumab, 8-hour incubation, 17K r-apo(a) 5 nM, LDL 100 nM) | percent inhibition of Lp(a) formation ([6]; 10 μM orticumab, 8-hour incubation, 17K r-apo(a) 5 nM, LDL 100 nM) | Lp(a) band on Western blot ([6]; 10 μM orticumab, 4 hours at 37° C., 17K r-apo(a) 5 nM, LDL 100 nM, FIG. 7) | Inhibition of Lp(a) formation, in words ([6]; 8-hour incubation, orticumab 0.01, 0.1, 1 and 10 μM, FIG. 9, 10) | Reduction of covalent Lp(a) compared with control antibodies ([6]; 17K r-apo(a) 5 nM, LDL 100 nM) | Reduction of covalent Lp(a) compared with control antibodies ([6]; 17K r-apo(a) 5 nM, LDL 100 nM, listed as Orticumab) | Inhibition of covalent binding between apo(a) and LDL, overall statement ([6]; orticumab 0.01, 0.1, 1 and 10 μM, Western blot) | percent inhibition of Lp(a) formation ([6]; orticumab "At 1" (unit not given), 8-hour incubation, 17K r-apo(a) 5 nM, LDL 100 nM) |
| --- | --- | --- | --- | --- | --- | --- | --- | --- | --- | --- | --- | --- | --- | --- | --- | --- | --- | --- | --- | --- |
| 21.4% | 73.5% | 25.8% | 35% | orticumab (antibody) | – | – | – | – | – | – | – | – | – | – | – | – | – | – | – | – |
| – | – | – | – | orticumab: human monoclonal antibody against apoB100 epitope P45 (residues 661-680); heavy chain SEQ ID No: 10, light chain SEQ ID No: 11 | ≤ 0.4 nM | 1000 nM | very effective in inhibiting non-covalent binding | able to alleviate the quenching; also recorded: much lower than that of the polyclonal anti-apoB antibody or EACA | inhibited the binding; also recorded: on par with the anti-apo(a) antibody; also recorded: interfered with the apo(a) and Flu-LDL interaction | not able to de-quench; also recorded: no effect on de-quenching the fluorescence | increased the fluorescence of Flu-LDL to a higher level; also recorded: enhanced fluorescent signal | 21.37% | 25.8% | 73.46% | Disappearance of the Lp(a) band | significantly inhibited Lp(a) formation; also recorded: decreased Lp(a) covalent assembly at the lowest concentration tested | behaves similarly in reducing covalent Lp(a) | as effective as the anti-apoB or anti-apo(a) control antibodies | inhibited | 34.99% |
